Experimental data: PMC4380455 (PLoS ONE, 2015)
Values belong to the molecule of their own block, whether it stands above or below them.

B3: TM1088B (natural protein, T. maritima, UniProt D3KFX8 1-218, looked up)
chain: MKVIIIGGETTAYYLARSMLSRKYGVVIINKDRELCEEFAKKLKATIIHGDGSHKEILRDAEVSKNDVVVILTPRDEVNLFIAQLVMKDFGVKRVVSLVNDPGNMEIFKKMGITTVLNLTTLITNTVEALIFPDEFSSIIPLEQGIEFLSVNVEEDSPVVGKKLKDLPLPRDSIIAAIVRGGVLVVPRGDTEILSGDKLYVIVSAEAKETVEETLLGR
notes: TM1088B of Thermotoga maritima MSB8 (DSM3109), full length, residues 1-218, 24.0 kDa; UniProt D3KFX8_THEMA; also called N1 and C1 domains

How the values were obtained:
[1] = biological target: T1, TM1088A (Thermotoga maritima, UniProt D3KFX7); experiment: X-ray crystal structure, […] Å; type: binding; details: AMP co-purified from E. coli host, not added; nucleotide site GXGXXG (Gly14/Gly16/Gly19), Arg17, Ala59, Arg105; crystallised pH 6.5
T1 construct: gene TM1088

[2] = biological target: the molecule itself; experiment: crystal structure; TM1088B C-terminal domain (140-218) alone, tag intact, 1.55 Å, PDB 3JXO; two chains in the asymmetric unit; 25% ethylene glycol, 293 K
[3] = biological target: the molecule itself; experiment: crystal structure; TM1088A alone, 1.50 Å, PDB 2G1U; one molecule in the asymmetric unit, dimer formed in the crystal lattice; 40% MPD, 5% PEG-8000, 0.1 M cacodylate pH 6.5, 293 K
[4] = biological target: B3; experiment: crystal structure; TM1088A:TM1088B octameric assembly (4 TM1088A, 4 TM1088B, 4 AMP in the asymmetric unit), 3.45 Å, PDB 3L4B; complex at 3 mg/ml with NADH added 1.1:1.0; 0.1 M magnesium chloride, 15% PEG 4000, 0.1 M HEPES pH 7.0; details: both partners purified
[5] = biological target: the molecule itself; experiment: as above

Molecule: Nc1ncnc2c1ncn2[C@@H]1O[C@H](COP(=O)(O)O)[C@@H](O)[C@H]1O [AMP]
X-ray crystal structure, 1.50 Å [1]: AMP was co-purified with TM1088A and appears in both the high-resolution TM1088A structure

B1: TM1088B C-terminal domain (domain or fragment, T. maritima, UniProt D3KFX8 140-218, looked up)
chain: IPLEQGIEFLSVNVEEDSPVVGKKLKDLPLPRDSIIAAIVRGGVLVVPRGDTEILSGDKLYVIVSAEAKETVEETLLGR
notes: TM1088B of Thermotoga maritima MSB8 (DSM3109), C-terminal domain, residues 140-218; UniProt D3KFX8_THEMA; Crystallised with the tag intact; also called TM1088B (residues 140-218); C1 domain; source: E. coli HK100, plasmid pSpeedET-TM1088B, purified (Ni-NTA agarose)
stoichiometry N [2]: 2

binding result [4]: binds
B2: TM1088A (natural protein, T. maritima, UniProt D3KFX7 1-143, looked up)
chain: MSKKQKSKYIVIFGCGRLGSLIANLASSSGHSVVVVDKNEYAFHRLNSEFSGFTVVGDAAEFETLKECGMEKADMVFAFTNDDSTNFFISMNARYMFNVENVIARVYDPEKIKIFEENGIKTICPAVLMIEKVKEFIIGSEED
notes: TM1088A of Thermotoga maritima MSB8 (DSM3109), full length, residues 1-143, 16.0 kDa; UniProt D3KFX7_THEMA; first open reading frame of the TM1088 locus; The same construct was purified alone (2G1U) and in complex with untagged TM1088B (3L4B) from one plasmid by different purification schemes; AMP co-purified with it; Tag residues are numbered Met(-11) to 0; also called TM_1087.1; N2 domain; …
stoichiometry N [3]: 2

Molecule: B3
stoichiometry N [5]: 2
